Results taken from article PMC9935904.

Target: Lathyrus sativus β-L-ODAP synthase (LsBOS), N-terminal His-tag (Lathyrus sativus)
Test: SPR; Biacore 8K, CM5 chip; LsBOS amine-coupled (~1700 response), LsAAE3 as analyte; single cycle kinetics at 2.4, 12, 60, 300 and 1500 nM; 10 mM Hepes pH 7.4, 150 mM NaCl, 0.05 % tween 20, 25 °C; simple Langmuir binding model

Lathyrus sativus acyl-activating enzyme 3 (LsAAE3), N-terminal His-tag
Kd: 0.098 µM | koff: 0.000361 s⁻¹ | kon: 3670 M⁻¹ s⁻¹ | stoichiometry N: 1
